Measurements reported in patent US20180038858A1 (published 2018).
Bridge positions count the residues as written; N and C are the ends. * marks the point of attachment. Biotin = O=C1N[C@H]2[C@H](CS[C@H]2CCCCC(=O)*)N1

Assays:
[1] = target: T1, CCR1 on peripheral blood monocytes (human, UniProt P32246 1-355); assay: flow cytometry, biotinylated chemokine (1 µM) detected with fluorophore-streptavidin, on blood monocytes of a sarcoidosis patient
T1 construct: whole, on cells; also called chemokine (C-C motif) receptor 1
T1 sequence (looked up): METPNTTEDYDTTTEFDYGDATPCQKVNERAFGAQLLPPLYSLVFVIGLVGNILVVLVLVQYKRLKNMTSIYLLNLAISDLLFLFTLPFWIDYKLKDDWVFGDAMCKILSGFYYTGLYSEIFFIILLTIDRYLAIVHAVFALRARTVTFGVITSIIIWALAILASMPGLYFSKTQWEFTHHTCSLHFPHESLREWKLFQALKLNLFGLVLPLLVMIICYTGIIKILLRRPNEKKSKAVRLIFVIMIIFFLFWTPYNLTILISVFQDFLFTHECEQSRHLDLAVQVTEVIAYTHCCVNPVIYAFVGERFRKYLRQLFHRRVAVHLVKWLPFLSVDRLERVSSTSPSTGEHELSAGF
Method: Peripheral blood from patients and healthy controls was collected in heparin tubes. The red blood cells were lysed using Fix Buffer (Phosphate Buffer Saline (PBS) citrate with 4% paraformaldehyde) for four minutes at 37° C. and Lysing buffer (PBS with 10 mM Tris and 160 mM NH4Cl, pH 7.5) for 15 min at 37° C. The cells were washed in PBS with 2% Bovine Growth Serum, incubated with 10% human serum 15 min at room temperature (RT) and stained with cell specific antibodies together with biotinylated chemokine (1 μM) or the corresponding chemokine receptor antibody at 4° C. for 30 min (Table 1). The biotinylated chemokine was detected via the interaction between biotin and a fluorophore conjugated Streptavidin. The samples were analysed by flow cytometry on a FACS Canto flow cytometer with the FACSDiva software (BD Biosciences).

[2] = target: hCCR5 (human, UniProt P51681 1-352); assay: cell-based or functional assay
hCCR5, sequence (P51681 whole entry): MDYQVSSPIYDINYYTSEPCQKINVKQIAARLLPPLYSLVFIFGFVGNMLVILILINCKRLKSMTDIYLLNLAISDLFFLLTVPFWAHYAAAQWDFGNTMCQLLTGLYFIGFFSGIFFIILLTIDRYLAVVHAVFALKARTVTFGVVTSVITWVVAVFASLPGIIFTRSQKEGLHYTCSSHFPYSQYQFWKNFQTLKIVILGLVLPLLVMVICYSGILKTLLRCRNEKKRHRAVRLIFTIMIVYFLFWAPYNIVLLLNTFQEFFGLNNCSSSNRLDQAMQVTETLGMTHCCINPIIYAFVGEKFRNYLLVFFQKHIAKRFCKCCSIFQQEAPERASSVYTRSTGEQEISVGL

binding result [1]: binds | EC50, agonist activity in an Aequorin assay [2]: 0.5 nM
B1: biotinRANTES (CCL5), RANTES derivatised at Lys(67) with Biotin (ligand)
chain: H-SPYSSDTTPCCFAYIARPLPRAHIKEYFYTSGKCSNPAVVFVTRKNRQVCANPEKKWVREYINSLEK(Biotin)S-OH
modifications: disulfide 10-34, 11-50
notes: Residues 1-68 of mature human RANTES; also called biotinylated RANTES; bRANTES
